From patent publication US6881834

Columns and labels:
[1] = biological target: Sp3 (UniProt Q02447); assay: cell_activity; details: luciferase induction in Drosophila cells
[2] = biological target: Sp1 (UniProt P08047); assay: cell_activity; details: luciferase induction in Drosophila cells
Sp1, sequence (P08047 2-785): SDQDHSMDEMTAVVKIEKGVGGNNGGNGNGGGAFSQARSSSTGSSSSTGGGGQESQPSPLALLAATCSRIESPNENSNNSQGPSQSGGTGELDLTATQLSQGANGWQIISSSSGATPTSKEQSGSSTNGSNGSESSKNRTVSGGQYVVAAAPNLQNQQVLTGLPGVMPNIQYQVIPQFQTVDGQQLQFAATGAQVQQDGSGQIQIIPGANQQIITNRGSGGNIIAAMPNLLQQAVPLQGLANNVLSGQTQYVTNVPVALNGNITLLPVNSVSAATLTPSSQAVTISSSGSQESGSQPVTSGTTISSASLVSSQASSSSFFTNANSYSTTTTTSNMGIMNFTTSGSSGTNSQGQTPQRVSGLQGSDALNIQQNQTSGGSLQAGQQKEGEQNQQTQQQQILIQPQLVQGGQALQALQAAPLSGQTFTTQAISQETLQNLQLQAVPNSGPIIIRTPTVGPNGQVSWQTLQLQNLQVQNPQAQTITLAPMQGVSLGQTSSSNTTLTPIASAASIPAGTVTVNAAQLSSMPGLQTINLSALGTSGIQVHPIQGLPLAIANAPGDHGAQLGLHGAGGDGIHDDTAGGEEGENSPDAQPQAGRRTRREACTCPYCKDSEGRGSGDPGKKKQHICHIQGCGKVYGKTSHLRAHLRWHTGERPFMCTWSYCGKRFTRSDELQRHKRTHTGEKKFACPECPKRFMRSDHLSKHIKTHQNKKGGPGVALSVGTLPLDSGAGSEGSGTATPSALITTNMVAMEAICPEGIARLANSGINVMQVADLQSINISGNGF

Sp3, sequence (Q02447 whole entry): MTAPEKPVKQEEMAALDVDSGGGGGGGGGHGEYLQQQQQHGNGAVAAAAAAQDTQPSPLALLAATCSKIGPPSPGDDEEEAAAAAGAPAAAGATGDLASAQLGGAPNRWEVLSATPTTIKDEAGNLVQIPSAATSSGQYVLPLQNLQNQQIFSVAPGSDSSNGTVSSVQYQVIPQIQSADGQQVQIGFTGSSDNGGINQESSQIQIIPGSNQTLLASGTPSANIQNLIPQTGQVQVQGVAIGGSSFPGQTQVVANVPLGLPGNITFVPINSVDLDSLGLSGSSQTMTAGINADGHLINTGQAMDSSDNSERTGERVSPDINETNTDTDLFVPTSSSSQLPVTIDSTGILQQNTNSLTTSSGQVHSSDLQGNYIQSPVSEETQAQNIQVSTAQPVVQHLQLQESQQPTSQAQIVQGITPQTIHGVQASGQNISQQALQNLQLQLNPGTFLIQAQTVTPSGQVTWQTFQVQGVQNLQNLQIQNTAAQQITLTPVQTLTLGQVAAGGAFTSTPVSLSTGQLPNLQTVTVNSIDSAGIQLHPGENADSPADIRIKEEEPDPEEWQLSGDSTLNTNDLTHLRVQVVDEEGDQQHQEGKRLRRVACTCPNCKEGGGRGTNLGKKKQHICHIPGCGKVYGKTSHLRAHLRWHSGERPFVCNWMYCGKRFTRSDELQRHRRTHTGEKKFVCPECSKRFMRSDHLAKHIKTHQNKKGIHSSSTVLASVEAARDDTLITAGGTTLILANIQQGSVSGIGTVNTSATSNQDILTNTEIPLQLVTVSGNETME

In the case of CD11c promoter -196/+30 (CD11c-luc), the activity [1] is reported as 18.9 fold and the activity [2] is reported as 19.5 fold.
